Experiment [1] has as its target T1, recombinant human CD70 (Flag-TNC-CD70) (human, UniProt P32970 39-193).
T1 construct: extracellular domain; Captured by anti-Flag mAb in ELISA; as 'recombinant human CD70' immobilised on Biacore CM5 chips; TNC is for trimerisation; also called recombinant CD70; human recombinant CD70; not shown: Flag tag and TNC trimerisation domain
T1 sequence (looked up): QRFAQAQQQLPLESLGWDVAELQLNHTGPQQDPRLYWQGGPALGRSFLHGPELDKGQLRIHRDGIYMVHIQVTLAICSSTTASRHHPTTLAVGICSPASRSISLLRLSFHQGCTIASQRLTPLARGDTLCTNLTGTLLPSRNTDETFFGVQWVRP
Briefly: Biacore; recombinant human CD70 on CM5 chip; Fab injected. As to the method: Off-rates of the purified llama-derived anti-CD70 blocking Fabs were determined using the Biacore. Recombinant human CD70 was immobilized on a CM5 Biacore chip. The immobilization was performed in accordance with a method provided by Biacore and by using the NHS/EDC kit (Biacore AB): after activation of the chip, a solution of 50 μg/ml of recombinant CD70 in 10 mM acetate buffer with pH of 5 was prepared and 1 μl of this solution (50ng) was injected resulting in a surface density of approximately 1000 RU.
Fabs for the CD70 mAbs ARGX-110, MDX2H5 and SGN70 were prepared by […] digestion (SGN70 and MDX69A7 are described elsewhere herein, MDX2H5, also referred to as MDX1411, is described in WO2008/074004 FIGS. 1A and 1B). Fabs, at a concentration of approximately 100-400 μg/ml, were diluted 6-fold in hepes-buffered saline (0.1M Hepes, 1.5M NaCl, 30 mM EDTA, 0.5% v/v surfactant P20). They were injected (30 μl) and passed through the flow cells at a flow rate of 30 μl/min. After binding of the Fab to CD70, the off-rate was monitored for a period of 10 minutes. After the dissociation, the flow cell surfaces were regenerated by injecting 5 μl of 10 mM NaOH. Sometimes multiple injections of NaOH were needed to regenerate the surfaces depending on the affinity of the Fabs. Off-rate analysis was done by applying the BIAevaluation software. First, the sensogram of the blank runs were subtracted from those obtained with the coated flow cell. […] Moreover, the off-rate of CD27 for CD70 was determined as well.
(SPR reads the build-up and loss of mass on a sensor chip optically.)

The target of experiment [2] is T1, recombinant human CD70 (Flag-TNC-CD70). Briefly: inhibition ELISA: Flag-TNC-CD70 captured by anti-Flag mAb, Fab titrated, remaining binding of CD27-Fc detected. The protocol: From selected phage transfected into TG1, individual colonies were picked randomly for growth in 96 well plates. After IPTG induction according to standard protocols periplasmic fractions (penis) containing Fabs were prepared. […] In this assay, Flag-TNC-CD70 is captured by an anti-Flag mAb and binding of CD27-Fc is detected via a biotinylated anti-CD27 mAb and strep-HRP in the absence or presence of CD70 Fabs (FIGS. 2 and 3) or CD70 mAbs (FIG. 4). In FIG. 2B it can be seen that 27B3, which has an identical VH as 9D1, but contains a somewhat different light chain, seems to block binding of CD27 to CD70 more efficiently, which was in line with the better off rate of this Fab as measured on Biacore (data not shown). Table 3 indicates the blocking potency (expressed as IC50) for the various llama-human chimeric mAbs tested in the CD70 inhibition ELISA. […] FIG. 3 is a composite of an experiment testing llama CD70 Fabs for blocking activity (in the inhibition ELISA, see white bars) and for CD70 binding (binding ELISA, black bars). For the binding ELISA, Flag-TNC-CD70 is captured by an anti-Flag mAb and binding of the Fabs is detected using an anti-myc-HRP mAb, which recognizes the MYC tag fused to the C-terminus of the Fd fragment. For comparison purposes, known monoclonal antibodies to CD70 (SGN70 described in US 2010/0129362 A1, clone 1F6; and MDX69A7 described in WO2008/074004 FIGS. 5A and 5B) were tested in parallel. […] Of interest is clone 59D10, which as Fab has no blocking activity, but when converted into a chimeric IgG was antagonistic (see Table 3). Amino acid sequences of the VH and VL domains of binding and blocking llama-derived Fab clones are shown elsewhere herein (Tables 6-9).

For experiment [3], the target named is T2, rhesus recombinant CD70 (FLAG-TNC-rhesus CD70) (rhesus).
T2 construct: also called rhesus Flag-TNC-CD70
Briefly: Biacore; rhesus recombinant CD70 on chip; Fab injected.

Experiment [4] addresses T3, recombinant human CD27 Fc chimera (CD27-Fc) (human, UniProt P26842 21-192).
T3 construct: Bought reagent; also called recombinant CD27-Fc; Fc part of the bought chimera not given
T3 sequence (looked up): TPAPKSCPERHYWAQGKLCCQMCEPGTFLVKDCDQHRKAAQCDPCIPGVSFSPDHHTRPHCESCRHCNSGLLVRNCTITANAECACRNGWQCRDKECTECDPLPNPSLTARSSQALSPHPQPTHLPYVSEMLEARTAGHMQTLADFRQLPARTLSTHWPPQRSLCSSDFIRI
The experiment is described as follows: ELISA; captured Flag-TNC-CD70. (In general: ELISA stands for enzyme-linked immunosorbent assay.)

B1: 9B2 Fab (Fab, V domains shown)
VH: QLQVVESGGGLMQPGGSLRLSCAASGFTFSGSAMSWVRQAPGKGLEWVSSIYSHSMYTYYADSVKSRFTISTDNAKNTLYLQMNSLKPDDTAVYYCAASSDYEGLFVSWGQGTQVTVSS
VL: QAVLTQPPSLSASPGSSVRLTCTLNSANSVGSYDISWYQQKAGSPPRYLLYYYSDSLSHQGSGVPSRFSGSTDASANAGLLLISGLQPEDEADYYCSAYNRGSHVFGGGTKLTVLG
notes: Llama-derived Fab
As a reminder, the koff is the first-order rate constant of dissociation. As for B1, the koff in experiment [1] came out at 0.00028 s⁻¹; in experiment [3], 0.00061 s⁻¹. Further, in experiment [2], the “IC50 (read off the curve)” value was roughly 4 nM.

B2: 9G2 Fab (Fab, V domains shown)
VH: QVQLVESGGGLMQPGGSLRLSCAASGFTFSSSAMSWVRQAPGKGLEWVSSIYSDSSYTYYADSVKSRFTISTDNAKNTLYLQMNSLKPDDTAVYYCAGSSDYEGSFASWGQGTQVTVSS
VL: QSVVTQPPSLSASPGSSVRLTCTLSSGNSVGNYDISWYQQKAGSPPRYLLYYYSDSVKHQGSGVPSRFSGSSDASANAGLLLISGLQPEDEADYYCSAYKSGSHVFGGGTKLTVLG
notes: Llama-derived Fab
Consider B2, for which the koff in experiment [1] and in experiment [3] was 0.00018 s⁻¹ throughout. Also, the “IC50 (read off the curve)” value in experiment [2] is roughly 2 nM.

B3: 57B6 Fab (Fab, V domains shown)
VH: QLQLVESGGGLVQPGGSLRLSCAASGFSFSHYAMSWVRQAPGKGLEWVSGDNTYDGGTRYQDSVKGRFTISRDNGKNTLYLQMNSLKPEDTAVYYCAKDTGRGIMGEYGMDYWGKGTLVTVSS
VL: QTVVTQEPSLSVSPGGTVTLTCGLKSGSVTSSNYPAWYQQTPGQAPRLLIYNTNSRHSGVPSRFSGSISGNKAALTITGAQPEDEADYYCALYMGSGSANAMFGGGTHLTVLG
notes: Llama-derived Fab
As to B3, the koff is 0.0001 s⁻¹ in experiment [1] and 4e-05 s⁻¹ in experiment [3].

B4: 19G10 Fab (Fab, V domains shown)
VH: EVQLQESGGGVVQPGGSLRLSCAASGFTFDDYAMSWVRQAPGKGLEWVSSIYMYDSSTYYADSVKGRFTISTDNAKNTVYLQMNSLKSEDTAVYYCAKDINRSYGSSWSHFGPIFSSWGQGTQVTVSS
VL: NFMLTQPSAVSVSLGQTARITCQGGYYTHWYQQKPGQAPVLVIYVNNNRPSGIPERFSGSSSGNTATLTISGAQAEDEAAYYCQSGSSSTIPVFGGGTKLTVLG
notes: Llama-derived Fab
Consider B4, for which the koff in experiment [1] is 8e-05 s⁻¹. Also, the “IC50 (read off the curve)” value in experiment [2] is roughly 0.04 µg/mL.

B5: 9E1 Fab (Fab, V domains shown)
VH: EVQLQESGGGVVQPGGSLRLSCAASGFTFDDYAMSWVRQAPGKGLEWVSSIYMYDSSTYYADSVKGRFTISTDNAKNTVYLQMNSLKSEDTAVYYCAKDINRSYGSSWSHFGPIFSSWGQGTQVTVSS
VL: QAVVTQEPSLSVSPGGTVTLTCGLTSGSVTSSNYPDWYQQTPGQAPRLLIYNTNSRHSGVPSRFSGSISGNKAALTITGAQPEDEADYYCNLYMGSGGSKVFGGGTKLTVLG
notes: Llama-derived Fab
Turning to B5, the koff in experiment [1] came out at 0.00019 s⁻¹; in experiment [3], 0.0002 s⁻¹.

B6: 24B6 Fab (Fab, V domains shown)
VH: EVQLQESGGGVVQPGGSLRLSCAASGFTFDDYAMSWVRQAPGKGLEWVSSIYMYDSSTYYADSVKGRFTISTDNAKNTVYLQMNSLKSEDTAVYYCAKDINRSYGSSWSHFGPIFSSWGQGTQVTVSS
VL: QPVLTQPSAVSVSLGQTARITCQGGYYTHWYQQKPGQAPVLVIYINNNRPSGIPERFSGSISGNTATLTISGAQVEDEADYYCQSGSSSTIPVFGGGTKLTVLG
notes: Llama-derived Fab
For B6, the koff in experiment [1] is 0.0001 s⁻¹. Further, the “IC50 (read off the curve)” value in experiment [2] is roughly 0.04 µg/mL.

B7: 5F4 Fab (Fab, V domains shown)
VH: EVQVQESGGGLVHPGGSLKLSCAASGFTFDTYAMSWVRQAPGKGLEWVSAISWSGGETFYAESMKGRFTISRNNAKNTLYLQMNSLKSEDTAVYYCARGMGLAEGLTDWGQGTQVTVSS
VL: QAVVTHPPSLSASPGSSVRLTCTLISGDNIGGYDISWYQQKTGSPPRYLLYYYSDSYKHQSSGVPSRFSGSKDASANAGLLLISGLQSEDEADYYCSAYKSGSYKAPVFGGGTHLTVLG
notes: Llama-derived Fab
As for B7, the koff was determined as 8e-05 s⁻¹ in experiment [1] and 0.0005 s⁻¹ in experiment [3]. The “IC50 (read off the curve)” value in experiment [2] is roughly 0.2 µg/mL.

B8: human-mouse CD70 chimera chim-1 (Flag-TNC-CD70) (ligand)
chain: HPEPHTAELQLNLTVPRKDPTLRWGAGPALGRSFLHGPELDKGQLRIHRDGIYMVHIQVTLAICSSTTASRHHPTTLAVGICSPASRSISLLRLSFHQGCTIASQRLTPLARGDTLCTNLTGTLLPSRNTDETFFGVQWVRP
modifications: Soluble homotrimer held by the TNC domain; one CD70 ECD chain is given.
notes: also called chimera 1; not shown: N-terminal Flag tag, TNC (tenascin-C) trimerisation domain and any linkers of the Flag-TNC-CD70 construct
With B8, the binding result in experiment [4] is “binds”.

B9: human-mouse CD70 chimera chim-2.1 (Flag-TNC-CD70) (ligand)
chain: HPEPHTAELQLNLTVPRKDPTLRWGAGPALGRSFTHGPELDKGQLRIHRDGIYMVHIQVTLAICSSTTASRHHPTTLAVGICSPASRSISLLRLSFHQGCTIASQRLTPLARGDTLCTNLTGTLLPSRNTDETFFGVQWVRP
modifications: Soluble homotrimer held by the TNC domain; one CD70 ECD chain is given.
notes: also called chimera 2.1; not shown: N-terminal Flag tag, TNC (tenascin-C) trimerisation domain and any linkers of the Flag-TNC-CD70 construct
As for B9, in experiment [4], the binding result is recorded as “binds”.

B10: 9D1 Fab (Fab, V domains shown)
VH: EVQLVESGGGLVQPGGSLRLSCAASGFTFSVYYMNWVRQAPGKGLEWVSDINNEGGTTYYADSVKGRFTISRDNAKNTLTLQMNSLKPEDTALYYCVRDAGYSNHVPIFDSWGQGTQVIVAS
VL: QAVVTQEPSLSVSPGGTVTLTCGLSSGSVTSSHYPGWYQQTPGQAPRLLIFNTNSRHSGVPSRFSGSISGNKAALTITGAQPEDEADYYCALLNIDDGSTMFGGGTHLTVLG
notes: Llama-derived Fab
In the case of B10, the koff turned out to be 0.00048 s⁻¹ in experiment [1] and 0.0002 s⁻¹ in experiment [3]. Also, in experiment [2], the “IC50 (read off the curve)” value is roughly 0.2 µg/mL.

B11: 24F2 Fab (Fab, V domains shown)
VH: EVQLVESGGGLVQPGGSLRLSCAASGFTFSVYYMNWVRQAPGKGLEWVSDINNEGGTTYYADSVKGRFTISRDNAKNTLTLQMNSLKPEDTALYYCVRDAGYSNHVPIFDSWGQGTQVIVAS
VL: QSALTQPSAVSVSLGQTARITCRGDTLRNYHANWYRQKPGQAPVLVIYGDDIRPSGIPERFSGSRLGGTATLTVSGAQAEDEADYYCQSSDSSGYRVVFGGGTKLTVLG
notes: Llama-derived Fab
Consider B11, for which the koff in experiment [1] amounted to 0.00016 s⁻¹. In addition, the “IC50 (read off the curve)” value in experiment [2] is roughly 0.04 µg/mL.

B12: 1C2 Fab (Fab, V domains shown)
VH: ELQVVESGGGLVQPGGSLRLSCAASGFTLSNYWMHWVRQAPRKGLEWVSTISTDNSRTYYADSVKGRFTISRDHAKNTLILQMNSLKSEDTAVYYCIRGSDYEHWGQGTQVTVSS
VL: QTVVTQEPSLSVSPGGTVTLTCGLSSGSVTTTNYPGWFQQTPGQAPRTLIYSTSSRHSGVPSRFSGSISGNKAALTITGAQPEDEADYYCALEEIGSYTYMFGGGTHLTVLG
notes: Llama-derived Fab
As to B12, the dissociation rate constant (koff) in experiment [3] came out at 0.00032 s⁻¹.

B13: 4D2 Fab (Fab, V domains shown)
VH: QVQLQESGPGLVKPSQTLSLACTVSGGSITTSYYYWSWIRQPPGKGLEWMGAIGSRGSTYYSPSLKTRTSISRDTSKNQFTLQLSSVTPEDTAVYYCARVTGEITYNSGSYYYTLNLFDYWGQGTQVTVSS
VL: QSVLTQPPSLSASPGSSVRLTCTLSSGNSVGNYDISWYQQKAGSPPRYLLYYYSDSYKNQGSGVPSRFSGSKDPSANAGLLLISGLQAEDEADYYCSVSNSGTYKPVFGGGSKLTVLG
notes: Llama-derived Fab
Consider B13, for which the off-rate constant (koff) in experiment [1] turned out to be 0.00033 s⁻¹; in experiment [3] it was 0.00029 s⁻¹. In addition, the “IC50 (read off the curve)” value in experiment [2] was roughly 1 nM.

(Values after patent US20150266963A1 (ARGEN X B V, published 2015).)
